Assay results as given in patent US20240384250A1, “FIBROBLAST GROWTH FACTOR 23 MODULATING COMPOUNDS” (THE UAB RESEARCH FOUNDATION, priority 2021, published 2024).

T1: FGF23/FGFR4 binding (Homo sapiens, UniProt P22455+Q9GZV9, R179Q)
T1 construct: Fc-FGFR4 protein (human ectodomain) was immobilized; purchased R&D Systems human FGF23 2604FG025/CF; human FGFR4 685FR050
T1 sequence (Q9GZV9 25-251 R179Q): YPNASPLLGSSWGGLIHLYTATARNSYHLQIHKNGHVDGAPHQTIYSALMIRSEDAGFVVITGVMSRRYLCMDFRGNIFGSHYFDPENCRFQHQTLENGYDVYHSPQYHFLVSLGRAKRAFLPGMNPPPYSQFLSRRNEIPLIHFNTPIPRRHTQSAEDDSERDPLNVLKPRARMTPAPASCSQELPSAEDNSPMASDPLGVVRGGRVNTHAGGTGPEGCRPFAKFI
T1 sequence (P22455 22-369 limits assumed): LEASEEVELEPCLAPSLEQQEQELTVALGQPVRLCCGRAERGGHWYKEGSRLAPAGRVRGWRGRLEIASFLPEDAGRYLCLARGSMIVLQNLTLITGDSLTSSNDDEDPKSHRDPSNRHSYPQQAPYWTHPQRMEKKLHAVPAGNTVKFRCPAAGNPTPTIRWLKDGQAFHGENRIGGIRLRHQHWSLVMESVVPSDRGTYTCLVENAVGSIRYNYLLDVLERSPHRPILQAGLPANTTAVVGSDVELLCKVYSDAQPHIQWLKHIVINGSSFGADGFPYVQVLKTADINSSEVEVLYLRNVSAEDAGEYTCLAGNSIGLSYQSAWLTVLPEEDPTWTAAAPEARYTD

B1: sKL: recombinant soluble α-klotho ectodomain, mouse aa 35-982 and human aa 34-981, FLAG- or Strep/His-tagged, purified from HEK293 cells (protein)
chain: EPGDGAQTWARFSRPPAPEAAGLFQGTFPDGFLWAVGSAAYQTEGGWQQHGKGASIWDTFTHHPLAPPGDSRNASLPLGAPSPLQPATGDVASDSYNNVFRDTEALRELGVTHYRFSISWARVLPNGSAGVPNREGLRYYRRLLERLRELGVQPVVTLYHWDLPQRLQDAYGGWANRALADHFRDYAELCFRHFGGQVKYWITIDNPYVVAWHGYATGRLAPGIRGSPRLGYLVAHNLLLAHAKVWHLYNTSFRPTQGGQVSIALSSHWINPRRMTDHSIKECQKSLDFVLGWFAKPVFIDGDYPESMKNNLSSILPDFTESEKKFIKGTADFFALCFGPTLSFQLLDPHMKFRQLESPNLRQLLSWIDLEFNHPQIFIVENGWFVSGTTKRDDAKYMYYLKKFIMETLKAIKLDGVDVIGYTAWSLMDGFEWHRGYSIRRGLFYVDFLSQDKMLLPKSSALFYQKLIEKNGFPPLPENQPLEGTFPCDFAWGVVDNYIQVDTTLSQFTDLNVYLWDVHHSKRLIKVDGVVTKKRKSYCVDFAAIQPQIALLQEMHVTHFRFSLDWALILPLGNQSQVNHTILQYYRCMASELVRVNITPVVALWQPMAPNQGLPRLLARQGAWENPYTALAFAEYARLCFQELGHHVKLWITMNEPYTRNMTYSAGHNLLKAHALAWHVYNEKFRHAQNGKISIALQADWIEPACPFSQKDKEVAERVLEFDIGWLAEPIFGSGDYPWVMRDWLNQRNNFLLPYFTEDEKKLIQGTFDFLALSHYTTILVDSEKEDPIKYNDYLEVQEMTDITWLNSPSQVAVVPWGLRKVLNWLKFKYGDLPMYIISNGIDDGLHAEDDQLRVYYMQNYINEALKAHILDGINLCGYFAYSFNDRTAPRFGLYRYAADQFEPKASMKHYRKIIDSNGFPGPETLERFCPEEFTVCTECSFFHTRKS
modifications: left off: small tags and cut ends
notes: recombinant soluble α-klotho ectodomain, mouse aa 35-982 and human aa 34-981, FLAG- or Strep/His-tagged, purified from HEK293 cells
B2: FGF23: recombinant fibroblast growth factor 23 protein from R&D Systems (protein)
chain: YPDTSPLLGSNWGSLTHLYTATARTSYHLQIHRDGHVDGTPHQTIYSALMITSEDAGSVVITGAMTRRFLCMDLHGNIFGSLHFSPENCKFRQWTLENGYDVYLSQKHHYLVSLGRAKRIFQPGTNPPPFSQFLARRNEVPLLHFYTVRPRRHTRSAEDPPERDPLNVLKPRPRATPVPVSCSRELPSAEEGGPAASDPLGVLRRGRGDARGGAGGADRCRPFPRFV

Columns and labels:
FGF23/FGFR4 binding = biological target: T1, FGF23/FGFR4 binding; assay: Surface plasmon resonance, FGF23 binding to surface FGFR4 with heparin or sKL in solution
Protocol: For the direct quantitative analysis of label-free molecular interactions in real time, surface plasmon resonance studies were conducted using BIAcore T200 and T200 evaluation software (28975001, Cytiva). Sensor SA (BR100398) and CMS chips (BR100399) were from Cytiva. For the preparation of heparin chips, heparin (2 mg) and amine-PEG3-Biotin (2 mg, 21347, Pierce) were dissolved in 200 μl of H2O and 10 mg of NaCNBH3 was added. The reaction mixture was heated at 70° C. for 24 hours; an additional 10 mg of NaCNBH3 was added; and the reaction was heated at 70° C. for another 24 hours. After cooling to room temperature, the mixture was desalted with the spin column (3000 MWCO). Biotinylated heparin was collected, freeze dried, and used for chip preparation. Biotinylated heparin was immobilized to streptavidin chips according to the manufacturer's protocol. In brief, 20 μl of biotinylated heparin solution (0.1 mg/ml) in HBS-P running buffer (0.01 M N-2-hydroxyethylpiperazine-N′-2-ethanesulfonic acid, 0.15 M NaCl, 0.005% surfactant P20 [pH7.4]; BR100368, Cytiva) was injected over flow cell 2 of the streptavidin chip at a flow rate of 10 μl/min. The successful immobilization of heparin was confirmed by the observation of an approximately 200-resonance unit increase in the sensor chip. […] The response was monitored as a function of time (sensorgram) at 25° C.

[1] = system: isolated adult ventricular cardiac myocytes; details: previous studies; cited from earlier work
male BALB/c mice = assay: Serial FGF23 and heparin injections in mice, echocardiography and heart weight; type: in vivo, mouse; details: heparin 125 USP/kg and/or FGF23 40 μg/kg
Protocol: FGF23 injections were administered following a similar protocol established previously. 13,72,73 Briefly, 12-week-old male BALB/c mice (The Jackson Laboratory) underwent tail vein injections. The day before the experiment, mice underwent echocardiographic analysis, as described below. Mice were anesthetized in 2.5% isoflurane and placed on a heat pad. Each group consisted of 5 mice, and different groups were injected with isotonic saline, heparin, FGF23, or FGF23 and heparin combined. Per injection, 40 μg/kg of FGF23 and 125, 62.5, or 12.5 USP/kg of heparin dissolved in 200 μl of isotonic saline were used, with 8 hours were used between injections for a total of 5 consecutive days. All injections were performed via the lateral tail vein. On the morning of the sixth day, 16 hours after the final tail vein injection, animals underwent echocardiographic analysis and were killed. Middle sections of hearts were cut along the short axis and stored overnight in 4% phosphate-buffered formaldehyde solution. Sections were sent to IDEXX Laboratories for embedding, hematoxylin and eosin (H&E) staining, and sectioning. Sections for wheat germ agglutinin (WGA) labeling were not stained by IDEXX Laboratories.
Echocardiographic analysis was performed on day 6 of the experiment for FGF23-injected mice by using the Vevo 770 or Vevo 3100 imaging system (FUJIFILM VisualSonics). Animals were anesthetized with 1.5% isoflurane, and normal body temperature was maintained using a rectal probe for temperature monitoring. For analysis, both B- and M-mode images were obtained in the short- and long-axis views. Correct positioning of the transducer was ensured using B-mode imaging in the long-axis view before switching to the short-axis view. Image analysis was performed using Vevo 770 Workstation and Vevo LAB software (FUJIFILM VisualSonics).

Molecule | sKL's effect on increasing FGFR4 affinity for FGF23 relative to heparin (FGF23/FGFR4 binding) | increase in FGF23/FGFR4 binding affinity (FGF23/FGFR4 binding; heparin or sKL in solution) | FGF23-induced calcium mishandling, altered contractility, proarrhythmic calcium release [1] | Endocardial % EF (male BALB/c mice) | Endocardial % FAC (male BALB/c mice) | Endocardial Area; s (male BALB/c mice) | Endocardial major; d (male BALB/c mice) | Epicardial Area: s (male BALB/c mice) | Epicardial Area; d (male BALB/c mice) | Heart rate (male BALB/c mice) | LV Mass; d (male BALB/c mice) | T; d (male BALB/c mice) | Endocardial Area; d (male BALB/c mice; i.v. 2 times per day for 5 days, mean ± SEM)
B1 | 4- to 5 fold | approximately 13 fold | can be blocked | – | – | – | – | – | – | – | – | – | –
B2 | – | – | – | 61.57 ± 3.48% | 51.38 ± 2.02% | 4.88 ± 0.34 mm² | 7.94 ± 0.09 mm | 19.4 ± 0.46 mm² | 23.1 ± 0.45 mm² | 452.70 ± 4.48 BPM | 122.10 ± 3.05 mg | 0.94 ± 0.02 mm | 9.93 ± 0.39 mm²
